Ends that are not written are not given here.
B1: N-terminal domain of human TNFR-1 associated death domain protein (N-TRADD), residues 1-169, wild type (other)
chain: MAAGQNGHEEWVGSAYLFVESSLDKVVLSDAYAHPQQKVAVYRALQAALAESGGSPDVLQMLKIHRSDPQLIVQLRFCGRQPCGRFLRAYREGALRAALQRSLAAALAQHSVPLQLELRAGAERLDALLADEERCLSCILAQQPDRLRDEELAELEDALRNLKCGSGAR
notes: Expressed in E. coli BL-21; monomeric (>95%) by SEC-HPLC; 15N or 15N/13C labelled for NMR; also called N-TRADD (1-169); wild-type N-TRADD; not shown: His tag introduced after aa169

Experiments:
[1] = target: T1, N-TRADD/C-TRAF2 interaction (Homo sapiens, UniProt Q12933); test: BIAcore competition for binding of N-TRADD to C-TRAF2
T1 construct: The C-TRAF2 (residues 262-501) used in the instant HSQC titration experiment; initiator Met added before residue 262 (N); 6xHis (C); made in house; host or cells: C-TRAF2: baculovirus in 'Tini' cells; N-TRADD: E. coli BL-21
T1 sequence (Q12933 262-501): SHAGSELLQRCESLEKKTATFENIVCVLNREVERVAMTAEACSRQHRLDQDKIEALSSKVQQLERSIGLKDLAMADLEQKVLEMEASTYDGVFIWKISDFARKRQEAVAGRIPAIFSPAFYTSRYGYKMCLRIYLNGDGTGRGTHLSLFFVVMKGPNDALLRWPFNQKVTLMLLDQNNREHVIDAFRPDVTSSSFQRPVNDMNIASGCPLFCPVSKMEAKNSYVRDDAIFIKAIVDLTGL
Description: (§1) C-TRAF2 and N-TRADD binding studies: The affinity of wild-type N-TRADD and C-TRAF2 was measured by surface plasma resonance using a BIAcore 2000 system (Pharmacia Biosensor AB). C-TRAF2 (residues 262-501) was purified and coupled to a sensor chip CM5 by amine coupling at pH=5.0 to get about 800, 1500 and 5500 response units on three different flow cells. A constant flow (20 μL/min) of purified N-TRADD protein in 10 mM Hepes, pH=7.4, 150 mM NaCl, 3.4 mM EDTA and 0.05% P20 surfactant at 8 different concentrations from 650 μM to 84 μM was applied over the protein coupled chip for 2 min to analyze the association. Binding constants were obtained from the BIAevaluation software.
In the instant studies, the interaction between a 13-mer peptide derived from CD40 (a longer version of CD40 -pl, with sequences SNTAAPVQETLHG (SEQ ID NO:2)) with C-TRAF2 was characterized, as well as its effect on the N-TRADD/C-TRAF2 interaction. […] In addition the peptide was also able to compete for the binding of N-TRADD to C-TRAF2, with an IC50 of ˜1 mM.
In addition to this 13-mer peptide, the effect of the CD40-p1 peptide (McWhirter et al, Proc. Natl. Acad. Sci. USA 96: 8408-8413, 1999) on the interaction between N-TRADD and C-TRAF2 was also evaluated. […]

N-TRADD/C-TRAF2 binding = target: T2, N-TRADD/C-TRAF2 binding (Homo sapiens, UniProt Q12933); test: 1H-15N HSQC NMR study of N-TRADD/C-TRAF2 binding, inhibition by peptide; details: peptide 3 mM; N-TRADD and C-TRAF2 110 μM each; data not shown
T2 construct: The C-TRAF2 (residues 262-501) used in the instant HSQC titration experiment; initiator Met added before residue 262 (N); 6xHis (C); made in house; host or cells: C-TRAF2: baculovirus in 'Tini' cells; N-TRADD: E. coli BL-21
T2 sequence (Q12933 262-501): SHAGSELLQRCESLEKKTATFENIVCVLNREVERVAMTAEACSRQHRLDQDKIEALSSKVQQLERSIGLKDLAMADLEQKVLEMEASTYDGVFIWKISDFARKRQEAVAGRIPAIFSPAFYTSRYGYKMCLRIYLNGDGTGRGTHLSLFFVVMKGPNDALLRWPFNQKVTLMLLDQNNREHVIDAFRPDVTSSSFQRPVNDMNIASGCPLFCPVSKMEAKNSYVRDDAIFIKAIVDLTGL
Description: (§2) NMR Spectroscopy: All NMR spectra were collected on a 600 MHZ Varian Unity Plus spectrometer. For the backbone assignments, HNCACB and HN(CO)CACB experiments (Clore and Gronenborn, Methods Enzymol. 239: 349-363, 1994; Muhandiram, et al., J. Magn. Reson. B103: 208-216, 1994) were performed. To confirm the type of amino acid assignment, C(CO)NH-TOCSY (Grzesiek, et al., J. Magnetic Resonance, B101: 114-119, 1993) was used. Side chain resonances were assigned from the following experiments: HBHA(CO)NH (Clore and Gronenborn, Methods Enzymol. 239: 349-363, 1994), HC(CO)NH-TOCSY (Grzesiek, et al., J. Magnetic Resonance. B101: 114-119, 1993) for the ^15N/^13C sample in 90% H2O, 10% D2O, HCCH-TOCSY for the ^15N/^13C-labeled sample in D2O, and ^15N-TOCSY-HSQC with the uniformly labeled ^15N protein.
The ^1H-^15N HSQC of N-TRADD was used as a tool to map the binding interface with C-TRAF2, since the chemical shifts of contact residues will be perturbed upon complex formation. […] The C-TRAF2 (residues 262-501) used in the instant HSQC titration experiment (at 120 μM) is also a trimer, as determined by size exclusion chromatography. […] N-TRADD Mutagenesis and interactions between C-TRAF2 and N-TRADD: In order to further characterize the amino acids in N-TRADD that are involved in C-TRAF2 recognition, site directed mutants of N-TRADD were prepared and evaluated for their ability to bind C-TRAF2. […]

N-TRADD [2] = target: T3, N-TRADD (Homo sapiens, UniProt Q15628); test: 1H-15N HSQC of N-TRADD with addition of peptide; assay type: binding
T3 construct: The polypeptide for N-TRADD (1-169) was overexpressed in BL-21 E. coli; His tag (C); made in house; host or cells: E. coli BL-21, vector pRSETB
T3 sequence (Q15628 1-169): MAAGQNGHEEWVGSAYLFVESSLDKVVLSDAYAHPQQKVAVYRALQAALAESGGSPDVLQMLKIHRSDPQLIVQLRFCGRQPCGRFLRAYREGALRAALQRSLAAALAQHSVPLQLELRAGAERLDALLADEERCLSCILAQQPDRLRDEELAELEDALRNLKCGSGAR
Description: as §2
Inhibition by the CD40-derived peptide was also observed in the ^1H-^15N HSQC studies of N-TRADD/C-TRAF2 binding. At stoichiometric concentrations of N-TRADD and C-TRAF2 (110 μM each), HSQC peaks for N-TRADD have broadened out due to binding to C-TRAF2 as described above.

N-TRADD [3] = target: T3, N-TRADD; test: BIAcore experiment, CD40 peptide with N-TRADD; assay type: binding; details: final peptide concentration approximately 15 mM; data not shown
[4] = target: T4, C-TRAF2 (residues 262 to 501 of human TRAF2) (human, UniProt Q12933 262-501); test: BIAcore (SPR), C-TRAF2 amine-coupled to CM5 chip, N-TRADD in flow
T4 construct: range 262-501; Expressed by baculovirus; Amine-coupled to a CM5 chip in the BIAcore experiments; also called C-terminal domain of TRAF2; C-TRAF2 (residues 262-501)
T4 sequence: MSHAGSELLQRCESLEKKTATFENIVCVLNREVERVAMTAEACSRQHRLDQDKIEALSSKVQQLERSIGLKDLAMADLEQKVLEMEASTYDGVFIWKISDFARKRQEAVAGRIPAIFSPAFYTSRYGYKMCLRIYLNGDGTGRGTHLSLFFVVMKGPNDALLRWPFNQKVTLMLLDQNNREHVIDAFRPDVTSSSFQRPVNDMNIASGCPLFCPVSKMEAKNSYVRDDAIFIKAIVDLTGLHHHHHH
Description: as §1, with “µL/min)” for “μL/min)”, “µM” for “μM”

[5] = target: T4, C-TRAF2 (residues 262 to 501 of human …); test: BIAcore surface plasmon resonance, C-TRAF2 (printed TF2-C) coupled to the CM5 chip, N-TRADD mutant in the flow
[6] = target: T4, C-TRAF2 (residues 262 to 501 of human …); test: BIAcore (SPR), C-TRAF2 on chip
Description: as §1, with “µL/min)” for “μL/min)”, “µM” for “μM”

[7] = target: T4, C-TRAF2 (residues 262 to 501 of human …); test: BIAcore (SPR)
[8] = target: B1; test: 1H-15N HSQC NMR
[9] = target: T4, C-TRAF2 (residues 262 to 501 of human …); test: BIAcore competition; competitor N-TRADD
[10] = target: T4, C-TRAF2 (residues 262 to 501 of human …); test: inhibition of the N-TRADD/C-TRAF2 interaction; competitor N-TRADD

SNTAAPVQETLHG-OH [13-mer peptide derived from CD40, SNTAAPVQETLHG-OH]
inhibition of the interaction between N-TRADD and C-TRAF2 (in words) [1]: inhibited
effect on 1H-15N HSQC spectrum of N-TRADD broadened by C-TRAF2 (N-TRADD/C-TRAF2 binding): restored the ^1H-^15N HSQC spectrum of N-TRADD alone
interaction between N-TRADD and peptide (changes in 1H-15N HSQC of N-TRADD) (N-TRADD [2]): No interaction
interaction between peptide and N-TRADD by BIAcore (N-TRADD [3]): lack of interaction

B1
Kd [4]: 6 µM

B2: N-TRADD D149A mutant protein (other)
chain: MAAGQNGHEEWVGSAYLFVESSLDKVVLSDAYAHPQQKVAVYRALQAALAESGGSPDVLQMLKIHRSDPQLIVQLRFCGRQPCGRFLRAYREGALRAALQRSLAAALAQHSVPLQLELRAGAERLDALLADEERCLSCILAQQPDRLRAEELAELEDALRNLKCGSGAR
notes: Single point mutant of the N-TRADD (1-169) construct; not shown: His tag after aa169 of the N-TRADD construct
binding result [5]: binds

B3: N-TRADD H65A mutant protein (other)
chain: MAAGQNGHEEWVGSAYLFVESSLDKVVLSDAYAHPQQKVAVYRALQAALAESGGSPDVLQMLKIARSDPQLIVQLRFCGRQPCGRFLRAYREGALRAALQRSLAAALAQHSVPLQLELRAGAERLDALLADEERCLSCILAQQPDRLRDEELAELEDALRNLKCGSGAR
notes: as for B2
binding result [5]: binds

B4: N-TRADD I72A mutant protein (other)
chain: MAAGQNGHEEWVGSAYLFVESSLDKVVLSDAYAHPQQKVAVYRALQAALAESGGSPDVLQMLKIHRSDPQLAVQLRFCGRQPCGRFLRAYREGALRAALQRSLAAALAQHSVPLQLELRAGAERLDALLADEERCLSCILAQQPDRLRDEELAELEDALRNLKCGSGAR
notes: also called 172A (so in the source); not shown: His tag after aa169 of the N-TRADD construct
binding result [5]: binds

B5: N-TRADD Y16A mutant protein (other)
chain: MAAGQNGHEEWVGSAALFVESSLDKVVLSDAYAHPQQKVAVYRALQAALAESGGSPDVLQMLKIHRSDPQLIVQLRFCGRQPCGRFLRAYREGALRAALQRSLAAALAQHSVPLQLELRAGAERLDALLADEERCLSCILAQQPDRLRDEELAELEDALRNLKCGSGAR
notes: as for B2
fold reduction in C-TRAF2 affinity against wild-type N-TRADD [6]: ~16 fold

B6: 13-mer peptide derived from CD40 (SNTAAPVQETLHG-OH) (peptide)
peptide: SNTAAPVQETLHG-OH
notes: Synthesised by Fmoc solid-phase methods; printed with a free C-terminus (-OH); also called CD40 peptide; CD40-derived peptide
Kd [7]: ~1 mM
binding result [8]: no binding
IC50 [9]: ~1 mM

B7: CD40-p1 peptide (YPIQET) (peptide)
peptide: YPIQET
notes: Peptide of McWhirter et al; also called CD40-pl; 6-mer peptide
IC50 [10]: ~200 µM

— US7460961B2, “N-TRADD active site and uses thereof” (Genetics Institute, LLC, priority 2000, dated 2008)
